Experimental data as given in patent US20080193373A1.

Tests used:
[1] = target: SA-B3/OmpA fusion protein (E. coli OmpA with streptavidin binding ligand peptide SA-B3 inserted) (Escherichia coli); assay: magnetic separation (µMACS column) of a mixed E. coli Top10 culture with streptavidin-coated iron nanoparticles; counted as CFU on plates
[2] = target: SA-B3/OmpA fusion protein (E. coli OmpA with streptavidin binding ligand peptide SA-B3 inserted) (Escherichia coli); assay: magnetic separation (µMACS column) of a mixed E. coli Top10 culture with streptavidin-coated iron nanoparticles; input mix was about 47% OmpA+/SA-B3+ and 53% OmpA+LUX+; counted as CFU on plates

SA-B3/OmpA fusion protein (E. coli OmpA with streptavidin binding ligand peptide SA-B3 inserted) (Escherichia coli), sequence (chain, as listed by the source limits assumed): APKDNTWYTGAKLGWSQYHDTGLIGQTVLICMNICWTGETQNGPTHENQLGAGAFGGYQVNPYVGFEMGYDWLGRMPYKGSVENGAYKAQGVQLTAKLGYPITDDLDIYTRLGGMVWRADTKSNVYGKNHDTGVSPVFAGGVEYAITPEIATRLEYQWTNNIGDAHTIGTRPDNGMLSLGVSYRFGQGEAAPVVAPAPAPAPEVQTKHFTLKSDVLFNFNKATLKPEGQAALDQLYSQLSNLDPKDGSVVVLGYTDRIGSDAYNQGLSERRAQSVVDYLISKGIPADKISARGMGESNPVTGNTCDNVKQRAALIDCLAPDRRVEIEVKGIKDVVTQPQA

Streptavidin-coated iron-nanoparticles (from UniProt P22629 37-163)
proportion of SA-B3-expressing bacteria lost on the columns and while washing [1]: 7% | proportion of bacteria expressing SA-B3 after magnetic separation [2]: 92%
